# Assay results reported in publication PMC1762433.
# Target: FBXW8 (UniProt Q8N3Y1)
# Assay: HA IP, V5 immunoblot
# Details: reference: HA-cyclin D1 wild type; sites T286
substance,measurement,value
cyclin D1 (from UniProt P24385) HA-cyclin D1 T286A,binding against the reference,weaker
